The values that follow come from PMC10811483.

pKd: −log10 of the molar value.

Among the targets are Z-M_D37AzK; Z-M_H19AzK-PyOx; Z-M_H19AzK; Z-M_K33AzK-PyOx; Z-M_K33AzK; Z-M_M8AzK-PyOx; Z-M_M8AzK.
Common to all, as to experiment: SPR

The term pKd denotes −log10 of the Kd, conventionally taken in molar units. The low end stands for a large Kd, the high end for a small Kd. Regarding trastuzumab WT (antibody), the pKd with Z-M_D37AzK was 8.45; in the assay with Z-M_H19AzK-PyOx, 8.31; with Z-M_H19AzK, 8.29; with Z-M_K33AzK-PyOx, 8.46; with Z-M_K33AzK, 8.31; in the assay with Z-M_M8AzK-PyOx, 8.30. In the assay with Z-M_M8AzK, this substance showed a pKd of 8.40.
